Legend:
[1] = target: T1, FcγRIIIa V type extracellular domain with C-terminal His tag (human, UniProt P08637 17-208); assay: SPR (Biacore), antibody captured on chip, soluble FcgR as analyte; experiment 2
T1 construct: extracellular domain; also called FcgRIIIa V; FcgRIIIaV; not shown: His tag at the C terminus
Protocol: (§1) Antibodies of interest were analyzed for the interaction to FcgR according to the method described in Reference Example 8.
(§2) Analysis of interaction between obj ective antibody and the FcγR was carried out using Biacore T100 (GE Healthcare), Biacore T200, Biacore A100, and Biacore 4000. HBS-EP+ (GE Healthcare) was used as the running buffer, and the measurement temperature was set to 25° C. Chips produced by immobilizing the antigen peptide by the amine coupling method to a Series S sensor Chip CM5 (GE Healthcare), chips produced by allowing preliminarily biotinylated antigen peptides to interact with and immobilize onto a Series S Sensor Chip SA (certified) (GE Healthcare), chips produced by immobilizing Protein L (ACTIGEN, BioVision) to Series S Sencor Chip CM5 (GE Healthcare), or chips produced by immobilizing Protein A/G (Thermo Scientific) to Series S Sencor Chip CM5 (GE Healthcare) were used. Antibodies of interest were captured onto these chips, and allowed to interact to each FcγR diluted with running buffer. To regenerate and repeatedly use the chip, the antibodies captured onto the chip were washed off by reacting 10 mM glycine-HCl, pH 1.5.

[2] = target: T2, FcγRIIb extracellular domain with C-terminal His tag (human, UniProt P31994 43-217); assay: as above
T2 construct: extracellular domain; also called FcgRIIb; 2b; not shown: His tag at the C terminus
T2 sequence (looked up): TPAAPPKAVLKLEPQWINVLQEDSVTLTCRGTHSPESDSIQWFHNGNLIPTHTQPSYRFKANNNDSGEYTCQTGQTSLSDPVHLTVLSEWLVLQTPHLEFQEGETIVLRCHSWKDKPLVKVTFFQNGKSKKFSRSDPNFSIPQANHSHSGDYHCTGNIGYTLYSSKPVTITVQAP
Protocol: as §1, §2

[3] = target: T3, FcγRIa extracellular domain with C-terminal His tag (human, UniProt P12314 16-292); assay: as above
T3 construct: extracellular domain; also called FcgRI; FcgRIa; not shown: His tag at the C terminus
T3 sequence (P12314 16-292): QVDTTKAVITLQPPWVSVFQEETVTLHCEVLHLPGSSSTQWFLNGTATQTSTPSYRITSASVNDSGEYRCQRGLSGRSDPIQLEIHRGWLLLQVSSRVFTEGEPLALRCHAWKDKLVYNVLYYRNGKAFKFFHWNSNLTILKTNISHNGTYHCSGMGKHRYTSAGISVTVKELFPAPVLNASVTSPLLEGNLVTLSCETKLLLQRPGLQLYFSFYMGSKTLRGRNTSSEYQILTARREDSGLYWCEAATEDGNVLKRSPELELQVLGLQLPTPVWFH
Protocol: as §1, §2

[4] = target: T4, FcγRIIa R type extracellular domain with C-terminal His tag (human, UniProt P12318 34-217); assay: as above
T4 construct: extracellular domain; also called FcgRIIa R; FcgRIIaR; not shown: His tag at the C terminus
T4 sequence (looked up): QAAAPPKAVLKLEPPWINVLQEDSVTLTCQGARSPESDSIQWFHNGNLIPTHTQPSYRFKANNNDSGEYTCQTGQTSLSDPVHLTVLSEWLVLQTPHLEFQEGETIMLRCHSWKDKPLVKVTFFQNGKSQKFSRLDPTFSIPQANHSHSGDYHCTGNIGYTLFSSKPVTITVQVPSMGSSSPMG
Protocol: as §1, §2

[5] = target: T5, FcγRIIa H type extracellular domain with C-terminal His tag (human, UniProt P12318 34-217); assay: as above
T5 construct: extracellular domain; also called FcgRIIa H; FcgRIIaH; not shown: His tag at the C terminus
T5 sequence (looked up): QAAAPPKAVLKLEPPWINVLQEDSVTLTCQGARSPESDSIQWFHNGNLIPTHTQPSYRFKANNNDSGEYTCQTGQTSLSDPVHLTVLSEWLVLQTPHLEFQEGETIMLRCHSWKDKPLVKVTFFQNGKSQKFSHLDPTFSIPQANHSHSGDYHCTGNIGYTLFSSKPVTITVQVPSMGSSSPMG
Protocol: as §1, §2

[6] = target: T6, FcγRIIIa F type extracellular domain with C-terminal His tag (human, UniProt P08637 17-208); assay: as above
T6 construct: extracellular domain; also called FcgRIIIa F; FcgRIIIaF; not shown: His tag at the C terminus
T6 sequence (P08637 17-208): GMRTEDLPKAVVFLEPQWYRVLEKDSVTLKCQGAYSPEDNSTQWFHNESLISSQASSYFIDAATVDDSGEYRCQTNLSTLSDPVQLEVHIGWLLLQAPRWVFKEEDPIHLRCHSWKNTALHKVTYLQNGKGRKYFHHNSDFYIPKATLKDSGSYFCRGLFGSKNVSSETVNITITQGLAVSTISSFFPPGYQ
Protocol: as §1, §2

[7] = target: T1, FcγRIIIa V type extracellular domain …; assay: SPR (Biacore), antibody captured on chip, soluble FcgR as analyte; experiment 3
Protocol: as §1, §2

[8] = target: T2, FcγRIIb extracellular domain with …; assay: as above
Protocol: as §1, §2

[9] = target: T3, FcγRIa extracellular domain with …; assay: as above
Protocol: as §1, §2

[10] = target: T4, FcγRIIa R type extracellular domain …; assay: as above
Protocol: as §1, §2

[11] = target: T5, FcγRIIa H type extracellular domain …; assay: as above
Protocol: as §1, §2

[12] = target: T6, FcγRIIIa F type extracellular domain …; assay: as above
Protocol: as §1, §2

[13] = target: T1, FcγRIIIa V type extracellular domain …; assay: SPR (Biacore), antibody captured on chip, soluble FcgR as analyte; experiment 1
[14] = target: T2, FcγRIIb extracellular domain with …; assay: as above
[15] = target: T3, FcγRIa extracellular domain with …; assay: as above
[16] = target: T4, FcγRIIa R type extracellular domain …; assay: as above
[17] = target: T5, FcγRIIa H type extracellular domain …; assay: as above
[18] = target: T6, FcγRIIIa F type extracellular domain …; assay: as above
[19] = target: T1, FcγRIIIa V type extracellular domain …; assay: SPR (Biacore), antibody captured on chip, soluble FcgR as analyte; experiment 1 (second row of this antibody)
Protocol: as §1, §2

[20] = target: T2, FcγRIIb extracellular domain with …; assay: as above
Protocol: as §1, §2

[21] = target: T3, FcγRIa extracellular domain with …; assay: as above
Protocol: as §1, §2

[22] = target: T4, FcγRIIa R type extracellular domain …; assay: as above
Protocol: as §1, §2

[23] = target: T5, FcγRIIa H type extracellular domain …; assay: as above
Protocol: as §1, §2

[24] = target: T6, FcγRIIIa F type extracellular domain …; assay: as above
Protocol: as §1, §2

T1 sequence (P08637 17-208 F176V): as the sequence (P08637 17-208) above, with F160V counted along it

B1: H240-AK072/H240-BH076/L73-k0 (antibody, human IgG1, kappa)
heavy 1: QDQLVQSGAEVKKPGASVKVSCKASGFNIKDTYIQWVRQAPGQGLEWMGRIDPLRKQTKYREKFEGRVTITADTSTNTAYMELSSLRSEDTAVYYCVRSGREFDYWGQGTLVTVSSASTKGPSVFPLAPSSKSTSGGTAALGCLVKDYFPEPVTVSWNSGALTSGVHTFPAVLQSSGLYSLSSVVTVPSSSLGTQTYICNVNHKPSNTKVDKKVEPKSCDKTHTCPPCPAPEYYWGPSVFLFPPKPKDTLMISRTPEVTCVVVDVSDEEPEVKFNWYVDGVEVHNAKTKPREEQYNATYRVVSVLTVLHQDWLNGKEYKCKVSNKALPAPIEKTISKAKGQPREPQVYTLPPSRKEMTKNQVSLTCLVKGFYPSDIAVEWESNGQPENNYKTTPPVLDSDGSFFLYSKLTVDKSRWQQGNVFSCSVMHEALHNRYTQKSLSLSP
heavy 2: QDQLVQSGAEVKKPGASVKVSCKASGFNIKDTYIQWVRQAPGQGLEWMGRIDPLRKQTKYREKFEGRVTITADTSTNTAYMELSSLRSEDTAVYYCVRSGREFDYWGQGTLVTVSSASTKGPSVFPLAPSSKSTSGGTAALGCLVKDYFPEPVTVSWNSGALTSGVHTFPAVLQSSGLYSLSSVVTVPSSSLGTQTYICNVNHKPSNTKVDKKVEPKSCDKTHTCPPCPAPELLGGPSVFLFPPKPKDTLMISRTPEVTCVVVDVSHEEPEVKFNWYVDGVEVHNAKTKPREEQYNSTYRVVSVLTVLHQDWLNGKEYKCKVSNDALPMPIEETISKAKGQPREPQVYTLPPSREEMTKNQVSLTCLVKGFYPSDIAVEWESNGQPENNYKTTPPVLDSDGSFFLYSKLTVDKSRWQQGNVFSCSVMHEALHNHYTQESLSLSP
light: DIQMTQSPSSLSASVGDRVTITCRASQDIHKYIAWYQQKPGQAPRLLIQYTSTLQPGVPSRFSGSGSGTDYTFTISSLQPEDIATYYCLQYEQLRTFGGGTKVEIKRTVAAPSVFIFPPSDEQLKSGTASVVCLLNNFYPREAKVQWKVDNALQSGNSQESVTEQDSKDSTYSLSSTLTLSKADYEKHKVYACEVTHQGLSSPVTKSFNRGEC
notes: Heterodimerized anti-epiregulin (EREG) IgG1 antibody with two different H chains
[1]
  Kd: 1.2 nM
[2]
  Kd: 1500 nM
[3]
  Kd: 0.12 nM
[4]
  Kd: 280 nM
[5]
  Kd: 69 nM
[6]
  Kd: 3.7 nM
[7]
  Kd: 1.2 nM
[8]
  Kd: 1400 nM
[9]
  Kd: 0.11 nM
[10]
  Kd: 240 nM
[11]
  Kd: 79 nM
[12]
  Kd: 3.7 nM
[13]
  Kd: 0.99 nM
[14]
  Kd: 1300 nM
[15]
  Kd: 0.11 nM
[16]
  Kd: 240 nM
[17]
  Kd: 72 nM
[18]
  Kd: 2.9 nM

B2: H240-FA030/H240-FB059/L73-k0 (antibody, human IgG1, kappa)
heavy 1: QDQLVQSGAEVKKPGASVKVSCKASGFNIKDTYIQWVRQAPGQGLEWMGRIDPLRKQTKYREKFEGRVTITADTSTNTAYMELSSLRSEDTAVYYCVRSGREFDYWGQGTLVTVSSASTKGPSVFPLAPSSKSTSGGTAALGCLVKDYFPEPVTVSWNSGALTSGVHTFPAVLQSSGLYSLSSVVTVPSSSLGTKTYTCNVNHKPSNTKVDKKVEPKSCDKTHTCPPCPAPEYYWGPSVFLFPPKPKDTLMISRTPEVTCVVVDVSDEEPKVKFNWYVDGVEVHNAKTKPREEQYNATYRVVSVLTVLHQDWLNGKEYKCKVSNKALPAPIEKTISKAKGQPREPQVYTLPPSRKEMTKNQVSLTCLVKGFYPSDIAVEWESNGQPENNYKTTPPVLDSDGSFFLYSKLTVDKSRWQQGNVFSCSVMHEALHNRYTQKSLSLSP
heavy 2: QDQLVQSGAEVKKPGASVKVSCKASGFNIKDTYIQWVRQAPGQGLEWMGRIDPLRKQTKYREKFEGRVTITADTSTNTAYMELSSLRSEDTAVYYCVRSGREFDYWGQGTLVTVSSASTKGPSVFPLAPSSKSTSGETAALGCLVEDYFPEPVTVSWNSGALTSGVHTFPAVLQSSGLYSLSSVVTVPSSSLGTQTYICNVNHKPSNTKVDKKVEPKSCDKTHTCPPCPAPELLGGPSVFLFPPKPKDTLMISRTPEVTCVVVDVSHEEPEVQFNWYVDGVEVHNAETKPREEQYNSTYRVVSVLTVLHQDWLNGKEYKCKVSNDALPMPIEETISKAKGQPREPQVYTLPPSREEMTKNQVSLTCLVKGFYPSDIAVEWESNGQPENNYKTTPPVLDSDGSFFLYSKLTVDKSRWQQGNVFSCSVMHEALHNHYTQESLSLSP
light: DIQMTQSPSSLSASVGDRVTITCRASQDIHKYIAWYQQKPGQAPRLLIQYTSTLQPGVPSRFSGSGSGTDYTFTISSLQPEDIATYYCLQYEQLRTFGGGTKVEIKRTVAAPSVFIFPPSDEQLKSGTASVVCLLNNFYPREAKVQWKVDNALQSGNSQESVTEQDSKDSTYSLSSTLTLSKADYEKHKVYACEVTHQGLSSPVTKSFNRGEC
notes: Heterodimerized anti-EREG IgG1 antibody; A chain altered from H240-AK072, B chain altered from H240-BH076
[19]
  Kd: 1.2 nM
[20]
  Kd: 1500 nM
[21]
  Kd: 0.082 nM
[22]
  Kd: 260 nM
[23]
  Kd: 85 nM
[24]
  Kd: 3.9 nM
[13]
  Kd: 1.4 nM
[14]
  Kd: 1500 nM
[15]
  Kd: 0.12 nM
[16]
  Kd: 250 nM
[17]
  Kd: 85 nM
[18]
  Kd: 4.8 nM

— US20180155451A1 (published 2018)
